Results: the supplement of paper PMC9233669
This sample holds only a part of the variants without activity.

Key:
biotinyl-Phe-oxazolone = assay: self-aminoacylation, catalytic enhancement (BFO) (fold over background); higher = more active; k-Seq, kA / k0A0; sequences stand for … in GGGAAUGGAUCCACAUCUACGAAUUC…UUCACUGCAGACUUGACGAAGCUG
Procedure, shortened: (§1)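 Mutagenized RNA pools (0.43 μM; 21-nt variable region) were treated with 2–1250 μM of each biotinyl-aminoacyl-oxazolone. Conditions were 50 μL HEPES/NaCl/KCl/MgCl2/CaCl2 buffer, 5% acetonitrile, pH 6.9–7.0, room temperature, 90 minutes. Catalytic enhancement, the median kA relative to the uncatalyzed rate, was derived from streptavidin capture, qPCR and Illumina sequencing.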

biotinyl-Ile-oxazolone = assay: self-aminoacylation, catalytic enhancement (BIO) (fold over background); higher = more active; k-Seq, kA / k0A0; sequences stand for … in GGGAAUGGAUCCACAUCUACGAAUUC…UUCACUGCAGACUUGACGAAGCUG
Procedure, shortened: as §1

biotinyl-Val-oxazolone = assay: self-aminoacylation, catalytic enhancement (BVO) (fold over background); higher = more active; k-Seq, kA / k0A0; sequences stand for … in GGGAAUGGAUCCACAUCUACGAAUUC…UUCACUGCAGACUUGACGAAGCUG
Procedure, shortened: as §1

biotinyl-Leu-oxazolone = assay: self-aminoacylation, catalytic enhancement (BLO) (fold over background); higher = more active; k-Seq, kA / k0A0; sequences stand for … in GGGAAUGGAUCCACAUCUACGAAUUC…UUCACUGCAGACUUGACGAAGCUG
Procedure, shortened: as §1

biotinyl-Met-oxazolone = assay: self-aminoacylation, catalytic enhancement (BMO) (fold over background); higher = more active; k-Seq, kA / k0A0; sequences stand for … in GGGAAUGGAUCCACAUCUACGAAUUC…UUCACUGCAGACUUGACGAAGCUG
Procedure, shortened: as §1

biotinyl-Trp-oxazolone = assay: self-aminoacylation, catalytic enhancement (BWO) (fold over background); higher = more active; k-Seq, kA / k0A0; sequences stand for … in GGGAAUGGAUCCACAUCUACGAAUUC…UUCACUGCAGACUUGACGAAGCUG
Procedure, shortened: as §1

Sequence | self-aminoacylation (biotinyl-Phe-oxazolone) | self-aminoacylation (biotinyl-Ile-oxazolone) | self-aminoacylation (biotinyl-Val-oxazolone) | self-aminoacylation (biotinyl-Leu-oxazolone) | self-aminoacylation (biotinyl-Met-oxazolone) | self-aminoacylation (biotinyl-Trp-oxazolone)
AUUCACCUCAGUCAUCGGGUG [Fam2.2 aminoacylation ribozyme variant] | 56.6 | 4.75 | 4.58 | 8.93 | 7.34 | 6.63
CCACACUUCAAGGAACCGGUC [Fam1B.1 aminoacylation ribozyme variant] | 1.2 | 1.04 | 0.945 | 0.984 | 1.04 | 0.809
AAGUUUUCUAAUAGUCGCACG [Fam3.1 aminoacylation ribozyme variant] | 1.8 | 1.3 | 1.25 | 1.24 | 1.38 | 1.34
AUUCACCUAAGUCAUCGCGUG [Fam2.2 aminoacylation ribozyme variant] | 110 | 6.77 | 7.56 | 17.7 | 13.4 | 15.7
AAGUUGGCUAAUAGUCGUAAG [Fam3.1 aminoacylation ribozyme variant] | 10.7 | 1.49 | 1.37 | 1.14 | 1.33 | 4.1
AUUAACCUGGUCAUCGAGUCA [Fam2.1 aminoacylation ribozyme variant] | 0.5 | 0.698 | 0.711 | 0.662 | 0.763 | 0.405
AUGACCCUGGUCAUCGGGUGA [Fam2.1 aminoacylation ribozyme variant] | 571 | 31.9 | 35.1 | 99 | 90.6 | 94.9
CUACUGCAAACAAUCGGUCUA [Fam1A.1 aminoacylation ribozyme variant] | 0.688 | 0.876 | 0.871 | 0.858 | 0.868 | 0.72
CAGUUUGCGAAUAGUCGCAAG [Fam3.1 aminoacylation ribozyme variant] | 5.57 | 1.79 | 1.59 | 2.67 | 1.93 | 2
AUUGACCUAGGUCAUCGCGUG [Fam2.2 aminoacylation ribozyme variant] | 25 | 3.24 | 3.69 | 5.69 | 4.19 | 5.47
AUUACCCUGGUAAUCGAGUGC [Fam2.1 aminoacylation ribozyme variant] | 1.38 | 0.957 | 0.801 | 1.04 | 1.12 | 0.656
AUUCACCUAAGACAUCGGGUG [Fam2.2 aminoacylation ribozyme variant] | 33.4 | 3.05 | 3.13 | 5.92 | 4.49 | 4.54
GAUUUUGCUAAUAGUCGCAAG [Fam3.1 aminoacylation ribozyme variant] | 2.53 | 1.99 | 1.83 | 1.82 | 2.2 | 2.99
CCAGACUUCAAGCAAUCGCUC [Fam1B.1 aminoacylation ribozyme variant] | 5.36 | 2.23 | 2.11 | 2.71 | 2.06 | 1.54
AUUACCCUGGCCAUCGAGGGA [Fam2.1 aminoacylation ribozyme variant] | 0.483 | 1.9 | 2.96 | 1.47 | 1.01 | 1.31
AUUACCCUGUUCAUCUAGUGA [Fam2.1 aminoacylation ribozyme variant] | 86.2 | 6.08 | 7.03 | 14.8 | 16.4 | 17.3
AAGUUUCCUAAUAGUCGCAAU [Fam3.1 aminoacylation ribozyme variant] | 4.15 | 2.34 | 1.88 | 2.04 | 1.79 | 2.47
CUAUUUCACACAAUCGGUCUG [Fam1A.1 aminoacylation ribozyme variant] | 0.675 | 0.88 | 0.774 | 0.766 | 0.848 | 0.617
CUACUUCAAACAGUCGGUCUA [Fam1A.1 aminoacylation ribozyme variant] | 0.734 | 0.938 | 0.893 | 0.817 | 0.856 | 0.576
AUUCAACUGGGUCAUCGGGUG [Fam2.2 aminoacylation ribozyme variant] | 39.5 | 3.89 | 3.96 | 7.37 | 5.25 | 5.74
UUUCACCAAGGUCAUCGGGUG [Fam2.2 aminoacylation ribozyme variant] | 58.3 | 5.54 | 6.02 | 10.3 | 9.41 | 10.2
AUUACCCUGGUCAUAGAGUGU [Fam2.1 aminoacylation ribozyme variant] | 13.5 | 2.08 | 2.58 | 3.73 | 4.07 | 4.8
AUACACAUAGGUCAUCGGGUG [Fam2.2 aminoacylation ribozyme variant] | 40.3 | 3.69 | 3.83 | 6.21 | 5.61 | 6.66
AUUCACCAAGGUCAUCAGGUG [Fam2.2 aminoacylation ribozyme variant] | 3.44 | 1.6 | 1.37 | 2.25 | 2.1 | 1.79
AUGCACCUACGUCAUCGGGUG [Fam2.2 aminoacylation ribozyme variant] | 60.7 | 3.57 | 4.21 | 7.54 | 7.02 | 6.56
